Test results as given in publication PMC5383425, “Differential CLE peptide perception by plant receptors implicated from structural and functional analyses of TDIF-TDR interactions” (PLoS ONE, 2017).
Changes are numbered by the printed parent chain. Square brackets hold non-standard residues; d marks the D form. Ends that are not written are not given here. Hyp = O=C(O)[C@@H]1C[C@@H](O)CN1

Columns and labels:
Experiment in all cases: ITC
[1] = molecular target: T1, ecdTDR F281 alanine mutant (Arabidopsis thaliana, UniProt Q9FII5 30-642, alanine substitution of F281)
T1 sequence: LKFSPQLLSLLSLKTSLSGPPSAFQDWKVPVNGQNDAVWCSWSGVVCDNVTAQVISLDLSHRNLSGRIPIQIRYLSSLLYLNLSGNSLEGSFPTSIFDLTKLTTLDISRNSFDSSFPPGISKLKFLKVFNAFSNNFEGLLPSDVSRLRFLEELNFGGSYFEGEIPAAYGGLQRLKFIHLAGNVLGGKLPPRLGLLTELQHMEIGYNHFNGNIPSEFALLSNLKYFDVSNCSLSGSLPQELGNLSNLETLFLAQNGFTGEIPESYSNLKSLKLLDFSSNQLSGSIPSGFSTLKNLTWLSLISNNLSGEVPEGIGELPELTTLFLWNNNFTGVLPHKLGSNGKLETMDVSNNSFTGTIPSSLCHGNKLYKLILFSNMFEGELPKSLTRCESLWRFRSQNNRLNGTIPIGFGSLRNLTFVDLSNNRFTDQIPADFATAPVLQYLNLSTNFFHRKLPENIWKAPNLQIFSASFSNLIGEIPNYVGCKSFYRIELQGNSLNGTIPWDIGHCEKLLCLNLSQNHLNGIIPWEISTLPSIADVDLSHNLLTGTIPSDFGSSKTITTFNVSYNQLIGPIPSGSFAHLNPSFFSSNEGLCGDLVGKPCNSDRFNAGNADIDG

[2] = molecular target: T2, ecdTDR Y234 alanine mutant (Arabidopsis thaliana, UniProt Q9FII5 30-642, alanine substitution of Y234)
T2 sequence: T1 sequence with Y205A, A252F

[3] = molecular target: T3, ecdTDR mutant with all five N-terminal anchoring site-binding residues replaced by alanine (Arabidopsis thaliana, UniProt Q9FII5 30-642)
T3 chain: T1 sequence with R109A, F132A, S133A, S158A, Y159A, A252F

[4] = molecular target: T4, ecdTDR F279/F281 double alanine mutant (Arabidopsis thaliana, UniProt Q9FII5 30-642, F279 to alanine | F281 to alanine)
T4 sequence: T1 sequence with F250A

B1: Tracheary Element Differentiation Inhibitory Factor (TDIF) peptide (peptide)
peptide: HEV[Hyp]SG[Hyp]NPISN
notes: TDIF, the 12-residue CLE peptide processed from CLE41 and CLE44 of A. thaliana; printed as HEV(Hyp)SG(Hyp)NPISN; numbers count on: the 12-residue peptide; CLE44 encodes the same peptide; also called wild type TDIF; wtTDIF; source: synthetic peptide (peptide 2.0)
Kd [1]: 787 nM
Kd [2]: 1650 nM
Kd [3]: 3240 nM
Kd [4]: 887 nM
